{
  "source": "paper PMC4356361",
  "about": "“Three-dimensional structures of Plasmodium falciparum spermidine synthase with bound inhibitors suggest new strategies for drug design” (Acta Crystallographica Section D: Biological Crystallography, 2015)",
  "proteins": {"B1": {"name": "Plasmodium falciparum spermidine synthase, 39-residue N-terminally truncated construct (enzyme, UniProt Q8II73 40-321, looked up)", "chain": "SKKWFSEFSIMWPGQAFSLKIKKILYETKSKYQNVLVFESTTYGKVLVLDGVIQLTEKDEFAYHEMMTHVPMTVSKEPKNVLVVGGGDGGIIRELCKYKSVENIDICEIDETVIEVSKIYFKNISCGYEDKRVNVFIEDASKFLENVTNTYDVIIVDSSDPIGPAETLFNQNFYEKIYNALKPNGYCVAQCESLWIHVGTIKNMIGYAKKLFKKVEYANISIPTYPCGCIGILCCSKTDTGLTKPNKKLESKEFADLKYYNYENHSAAFKLPAFLLKEIENI", "notes": "Spermidine synthase of Plasmodium falciparum, construct lacking the first 39 N-terminal residues, in the p15-Tev-LIC vector, as described in Dufe et al. (2007); The crystals also held small-molecule ligands (MTA, dcAdoMet, putrescine, spermidine, 4MAN, 4AMA, BIPA); also called PfSpdS; SpdS; source: His-tag removed with TEV protease; not shown: His6, N-terminal, cleaved"}},
  "target": "the molecule itself",
  "test": "crystal structure; hanging-drop vapour diffusion at 295 K, 0.1 M MES pH 5.6, 0.1 M ammonium sulfate, 27% PEG 3350; space group C2, three monomers in the asymmetric unit; protein pre-incubated with small-molecule ligands",
  "data": [
    {"protein": "B1", "values": [
      {"measurement": "binding result", "value": "binds"}
    ]}
  ]
}
